The results in this text go back to patent publication CN113583114A (YANG SHENG TANG CO LTD; UNIV XIAMEN, dated 2021).

First the molecules themselves.
B1: 人源单克隆抗体5C6 (antibody, V domains shown)
VH: EVQLVESGGGVVQPGRSLRLSCAASGFTFRTYAMHWVRQAPGKGLEWVAVMWNDGSNKYYADSVKGRFTISRDNSKNTLYLEMNSLRAEDTAVYYCAREGVAAAGSSSDAFDIWGQGTMVTVSS
VL: DIQMTQSPSSLSASVGDRVTITCRASQSISNFLNWYQQKPGKAPKLLIYAASSLQSGVPSRFSGSGSGTDFTLTISSLQPEDFATYYCQQSYSTLYSFGQGTKLEIK
B2: 人源单克隆抗体3C11 (antibody, V domains shown)
VH: EVQLVESGGGLVQPGGSLRLSCAASGFTVSRNYMSWVRQAPGKGLEWVSVIYSGGSTYYADSVKGRFTISRDNSKNTLYLQMNSLRAEDTAVYYCARGLVASYRYGMDVWGQGTTVTVSS
VL: DIQMTQSPVSLSASIGDRVTITCQASQDITNYLNWYQQKPGKAPKLLIYDASNLETGVPSRFSGSGSGTDFTFTISSLQPEDIATYYCHQYDNLPVTFGGGTKVEIK
B3: 人源单克隆抗体6G9 (antibody, V domains shown)
VH: QVQLVQSGAEVKKLGASVKVSCKASGYSFTDYYIHWVRQAPGQGLEWMGWINPISGGTNYAQKFQGRVTMTRDTSITTVYMELSRLRSDDTAVYYCARDLPPYNWNGPLRSQRFDCWGQGTLVTVSS
VL: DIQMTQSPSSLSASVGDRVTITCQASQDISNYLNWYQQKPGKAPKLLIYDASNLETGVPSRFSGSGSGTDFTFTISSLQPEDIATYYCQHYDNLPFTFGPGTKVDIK

For the experiment, the target named is SARS-CoV-2Sde18 (SARS-CoV-2 S蛋白, C末端截短18个氨基酸) on VSV pseudovirus SARS-CoV-2VSVpp (SARS-CoV-2, UniProt P0DTC2 14-1255). As to the kind of experiment: cell-based or functional assay.
For the molecule B1, the 假病毒感染阻断率 was 80 % (at 0.22 μg/mL) and the “半抑制浓度(IC50), 假病毒中和 (GFP阳性细胞数减少)” value is 4.06 ng/mL.
Consider B2, for which the 假病毒感染阻断率 was 80 % (at 0.22 μg/mL) and the “半抑制浓度(IC50), 假病毒中和 (GFP阳性细胞数减少)” value stood at 62.9 ng/mL.
The like results for B3 were, in that order, 80 % (at 0.22 μg/mL) and 0.56 ng/mL.
